Test results: publication PMC5076566 (Cell, 2016)
One block for each binder: values may come before it.

What was measured:
[1] = molecular target: the molecule itself; test: polymerisation and hydrogel formation
[2] = molecular target: Recombinant human vimentin, full length (2-466 AA), assembled into intermediate filaments (human, UniProt P08670 2-466); test: transmission electron microscopy of filaments mixed with test protein
[3] = molecular target: GFP:hnRNPA1 ΔRRM (186-320), the C-terminal LC domain (human, UniProt P09651-2 186-320); test: co-IP
[4] = molecular target: GFP:hnRNPA1 full length (residue 2-320) (human, UniProt P09651-2 2-320); test: co-IP
[5] = molecular target: T1, His-3xFlag tagged D290V hnRNPA2 LCS (181-341 aa) (human, UniProt P22626-2 181-341, D290V); test: co-IP
T1 sequence (looked up): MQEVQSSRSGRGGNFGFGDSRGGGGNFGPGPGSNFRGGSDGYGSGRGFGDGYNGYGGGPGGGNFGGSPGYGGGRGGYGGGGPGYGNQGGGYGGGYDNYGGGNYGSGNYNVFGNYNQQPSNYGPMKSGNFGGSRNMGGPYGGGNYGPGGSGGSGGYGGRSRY

B1: mCherry:vimentin head domain (2-95) (domain or fragment, human, UniProt P08670 2-95, looked up)
chain: STRSVSSSSYRRMFGGPGTASRPSSSRSYVTTSTRTYSLGSALRPSTSRSLYASSPGGVYATRSSAVRLRSSVPGVRLLQDSVDFSLADAINTE
binding result [1]: binds

B2: mCherry:neurofilament heavy isoform head domain (3-100) (domain or fragment, human, UniProt P12036 3-100, looked up)
chain: SFGGADALLGAPFAPLHGGGSLHYALARKGGAGGTRSAAGSSSGFHSWTRTSVSSVSASPSRFRGAGAASSTDSLDTLSNGPEGCMVAVATSRSEKEQ
binding result [1]: binds

B3: mCherry:neurofilament medium isoform head domain (2-104) (domain or fragment, human, UniProt P07197 2-104, looked up)
chain: SYTLDSLGNPSAYRRVTETRSSFSRVSGSPSSGFRSQSWSRGSPSTVSSSYKRSMLAPRLAYSSAMLSSAESSLDFSQSSSLLNGGSGPGGDYKLSRSNEKEQ
binding result [1]: binds

B4: mCherry:neurofilament light isoform head domain (2-100) (domain or fragment, human, UniProt P07196 2-100, looked up)
chain: SSFSYEPYYSTSYKRRYVETPRVHISSVRSGYSTARSAYSSYSAPVSSSLSVRRSYSSSSGSLMPSLENLDLSQVAAISNDLKSIRTQEKAQLQDLNDR
binding result [1]: binds

B5: mCherry:peripherin head domain (2-99) (domain or fragment, human, UniProt P41219 2-99, looked up)
chain: SHHPSGLRAGFSSTSYRRTFGPPPSLSPGAFSYSSSSRFSSSRLLGSASPSSSVRLGSFRSPRAGAGALLRLPSERLDFSMAEALNQEFLATRSNEKQ
binding result [1]: binds

binding result [2]: binds
B6: GFP:FUS LC domain (residue 2-214) (domain or fragment, UniProt P35637 2-214, looked up)
chain: ASNDYTQQATQSYGAYPTQPGQGYSQQSSQPYGQQSYSGYSQSTDTSGYGQSSYSSYGQSQNTGYGTQSTPQGYGSTGGYGSSQSSQSSYGQQSSYPGYGQQPAPSSTSGSYGSSSQSSSYGQPQSGSYSQQPSYGGQQQSYGQQQSYNPPQGYGQQNQYNSSSGGGGGGGGGGNYGQDQSSMSSGGGSGGGYGNQDQSGGGGSGGYGQQDRG

binding result [3]: binds
binding result [4]: binds
binding result [5]: binds
Binder: PRPRPRPRPRPRPRPRPRPRPRPRPRPRPRPRPRPRPRPR [PR20HA peptide (20 repeats of PR with an HA epitope tag at the C-terminus)]
